# Article PMC7703590
# Biological target: SARS-CoV-2 RBD-Fc (SARS-CoV-2) (UniProt P0DTC2)
# Assay: BLI
Substance,avidity [pM],koff [s⁻¹]
IgG1 ab1 (antibody),160,–
IgG1 ab1 (from UniProt P01857),–,4e-05
